Experimental data reported in the nanobody polyreactivity screen of Harvey et al. (2022).

test: yeast display, Sf9 membrane polyspecificity reagent, FACS + sequencing; frameworks hold sequencing errors
Summary of the method: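 After 36–48 hours of galactose induction, yeast (Saccharomyces cerevisiae BJ5465) displaying a synthetic nanobody library were stained at 4 °C for 1 hour with 10% biotinylated, detergent-solubilized Sf9 membrane reagent. Streptavidin microbeads enriched the stained cells before FACS sorting into low and high (top ~1%) gates on anti-HA and streptavidin fluorescence. Each clone's polyreactivity label reflects its gate of origin.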

Sequence	polyreactivity (PSR sort gate)
QVQLVESGGGLVQAGGSLRLSCAASGSTFPFYAMGWYRQAPGKERELVAAITSGGSTYADSVKGRFTITRDNAKNTVYLQMNSLKPEDTSVYYCAASWPRWWRFGYWGQGTQVNVSS	low polyreactivity
QVQLVESGGGLVQAGGSLRLSCAASGSTFPGNAMGWYRQAPGKESELVASISGGGDSTYYADSVKGRFTISRDNAKNTVYLQMISLKPEDTAVYYCAADYRQEPGYTGYYYWGQGTQVTVSS	low polyreactivity
QVQLVESGGGLVQAGGSLRLSCAASGSTFPGYAMGWYRQAPGKERELVAAGGSTYYADSVKGRFTISRDNAKNTVYLEMNCLKPEETAVYYCAATWGSVQKGTYYYWGQGTQVTVSS	low polyreactivity
QVQLVESGGGLVQAGGSLRLSCAASGSTFPGYAMGWYRQAPGKERELVAAISASGGSTYYADSVKGRFTISRDNAKNTVYLQMNSLKPEDTAVYYCAKVLSRGASADDYWGQGTQVTVSS	low polyreactivity
QVQLVESGGGLVQAGGSLRLSCAASGSTFPHYAMGWYRQAPGKERELVAAISWSGSSTYYADSVKGRFTISRDNAKNTVYLQMNSLKPEDTAVYYCNILPRRAPQFTYDYWGQGTQVTVSS	high polyreactivity
QVQLVESGGGLVQAGGSLRLSCAASGSTFPINAMGWYRQAPGTERELVAAIDTNTASTYYADSVKGRFTISRDNAKNTVYLQMNSLKPEDTAVYYCAAEEWFYDGNVIYDWGQGTQVTVSS	high polyreactivity
QVQLVESGGGLVQAGGSLRLSCAASGSTFPIYAMGWYRQAPGKERELVAAITRSGGSTNYADSVKGRFTISRDNAKNTVYLQMNSLKPEDTAVYYCNRTRYRSFHYDYWGQGTQVTVSS	high polyreactivity
QVQLVESGGGLVQAGGSLRLSCAASGSTFPKYAMGWYRQAPGKERELVASISVTTGSTYYADSVKGRFTISRDNAKNTVYLQMNSLKPEDTAVYYCAKRTYSRKFRGAYNYWGQGTQVTVSS	high polyreactivity
QVQLVESGGGLVQAGGSLRLSCAASGSTFPKYAMGWYRQAPGKERELVASISVTTGSTYYADSVKGRFTISRDNAKNTVYLQMNSLNPEDTAVYYCAKRTYSRKFRGAYNYWGQGTQVTVSS	high polyreactivity
QVQLVESGGGLVQAGGSLRLSCAASGSTFPLYAMGWYRQAPGKERDLVAAITSGGGNTYYADSVKGRFTISRDNAKITVYLQMNSLKPEDTAVYSCAAVGGYKSYYSYEYDYWGQGTQVTVSS	low polyreactivity
QVQLVESGGGLVQAGGSLRLSCAASGSTFPLYAMGWYRQAPGKERELVAAITSGGGNTYYADSVKGRFTISRDNAKNTVYLQMNRLKPEDTAVYYCAAVGGYKSYYSYEYDYWGQGTQVTVSS	low polyreactivity
QVQLVESGGGLVQAGGSLRLSCAASGSTFPLYVMGWYRQSPGKERELVAAIDWSGGSTYYADSVKGRFTISRDNAKNTVFLQMNSLKPVDTAVYYCNRKRYGYDYEYWGQGTQVTVSS	low polyreactivity
QVQLVESGGGLVQAGGSLRLSCAASGSTFPPNAMGWYRQAPGKERELVAVISYTSGRTYYADSVKGRFTISRDNAKNTVYLQMNSLKPEDTAVYYCNKRVLYRQRGFNYWGQGTQVTVSS	high polyreactivity
QVQLVESGGGLVQAGGSLRLSCAASGSTFPPYAMGWYRQAPGKERELVAAIDWSDGTTYYADSVKGRFTISRDNAKNTVYLQMNSLKPEDTAVSYCSASLSQSEFDYWGQGTQVTVSS	low polyreactivity
QVQLVESGGGLVQAGGSLRLSCAASGSTFPQYAMGWSRQAPGKERELVAAISWSGGRTYYADSVKGRFTISRDNAKNTVYLQMNSLKPEDTAVYYCAATYPGQYGYNYWGQGTQVTVSS	high polyreactivity
QVQLVESGGGLVQAGGSLRLSCAASGSTFPSNAMGGYRQAPGKARELDAAISDSGSTTYYADSVKGRFTISRDNAKNTVYLQMNSLKPEDTAVYYCNADWWQYDFVFWTFGYDDWGQGTQVTLSS	low polyreactivity
QVQLVESGGGLVQAGGSLRLSCAASGSTFPSYAMGWYRQAPGKERELVAAINSGGGTNYADSVKGRFTISRDNAKNTVYFQMNSLKPEDTAVYYCAKSRDDYTNTEGGYWGQGTQVTVSS	low polyreactivity
QVQLVESGGGLVQAGGSLRLSCAASGSTFPTYAMGWSRQAPGKERELVAAIDWSDGSITYYADSVKGRFTISRDNAKNTVFLQLNSLKPEDTAVYYCAKDYSQYGWRYDYWGQGTQVTVSS	low polyreactivity
QVQLVESGGGLVQAGGSLRLSCAASGSTFPTYAMGWYRQAPGKERELVADITWSGGSTYYADSVKGRFTISRDNAKNTVYLQMNSLKPEDTAVYYCAAVFKAGSAYDYWGQGTQVTVSS	high polyreactivity
QVQLVESGGGLVQAGGSLRLSCAASGSTFPVNTMGWYRQAPGKERELVAAITKNGANTYYADSVKGRFTLSRDNAKNTVFLQMNSLKPEDTAVYYCAARYVYGKSYSRWLVELDYWGQATQVTVSS	low polyreactivity
QVQLVESGGGLVQAGGSLRLSCAASGSTFPVYAMGGYRQAPGKERELVAAISLIGGSTYYADSVKGRFTISRDTAKNTVYLQMNSLKPEDTAVYYCNTAVISSPPAIDVLEMDYWGQGTQVTVSS	low polyreactivity
QVQLVESGGGLVQAGGSLRLSCAASGSTFPVYAMGWYRQAPGKERELFAAISRAGSTNYADSVKGRFTISRDNAKNTVYLQMNSLKPEDTAVYYCAARGYLWAGEWYVRRDYWGQGTQVTVSS	high polyreactivity

Sequence	polyreactivity (PSR sort gate)
QVQLVESGGGLVQAGGSLRLSCAASGSTFPVYAMGWYRQAPGKERELVAAISRAGSTNYADSVKGRFTISRDNAKNSVYLQMNSLKPEDTAVYYCAARGYLWAGEWYVRRDDWGQGTQVTVSS	high polyreactivity
QVQLVESGGGLVQAGGSLRLSCAASGSTFPWYVMGGYRQAPGKERELVAAISLSGGRTYYADSVMGRFTISRDNAKNRVYLQMNSLKPEDTAVYYCAAEFKLVSHTYYYWGQGTQVTVSS	low polyreactivity
QVQLVESGGGLVQAGGSLRLSCAASGSTFPYNAMGWYRPAPGKERELVAAITAGGARTYYADSVKGRFTISRDNAKNTVYLQMNSLKPEDTAVYYCNKVKATSYRYYYWGQGTQVTVSS	high polyreactivity
QVQLVESGGGLVQAGGSLRLSCAASGSTFPYNAMGWYRQAPGKERELVAAITSSGRTNYADSVKGRFTISRDNANNTVYLQMNSLKPEDTAVYYCAAARWYAHRVDYWGQGTQVTVSS	low polyreactivity
QVQLVESGGGLVQAGGSLRLSCAASGSTFPYNAMGWYRQAPGKERELVADISGDSGSTYYADSVKGRFTISRDNAKNTVYLQMNSLKPEDTAVYYCAGEGVHYAGDYGTGYDYWGQGTQVTVSS	low polyreactivity
QVQLVESGGGLVQAGGSLRLSCAASGSTFPYNAMGWYRQAPGQERELVAAITRGGRTYYADSLKGRFTISRDNSKNTVYLQMISLKPEDTAVYYCAAYYSGYSKKFDYWGQGTQVTVSS	high polyreactivity
QVQLVESGGGLVQAGGSLRLSCAASGSTFPYNTMGWYRQAHGKEREFVAAITGDGGTTYYADSVKGRFTISRDNAKNTVYLQMNSLKPEDTAVYYCAVPYPAEGYGGDYWGQGTQGTVSS	low polyreactivity
QVQLVESGGGLVQAGGSLRLSCAASGSTFPYVMGWYRQAPGKERELVAAISQSTGGITNYADSVKGRFTISRDNAKNTVYLQMNSLKPEDTAVYYCAATSWRYQQSTRYKGRRYYSWGQGSQVTVSS	high polyreactivity
QVQLVESGGGLVQAGGSLRLSCAASGSTFPYYAMGWYRLAPGKERELVAAISFRGTRTYYADSVKGRFTISRDNAKNTVYLQMNSLKPEDTAVYYCAADASTYYGTQWASYYYWGQGTQVTVSS	high polyreactivity
QVQLVESGGGLVQAGGSLRLSCAASGSTFPYYAMGWYRQAPGKERELVAAISRRGTSTYYADSVKGRFTISRDNAKNTVYLQMNSLTPEDTAVYYCAAVGGAFPNRYYWGQGTQVTVSS	high polyreactivity
QVQLVESGGGLVQAGGSLRLSCAASGSTFPYYAMGWYRQAPGKERELVAAITSGGSTNYADSVKGRFTISRDNAKNTVYLQMNSLKPEDTAVYYCAADFALPNALPEYDYGAFDYNYWGQGTQVTVSS	low polyreactivity
QVQLVESGGGLVQAGGSLRLSCAASGSTFPYYGLGWYRQAPGKERELVAVISRRGTGTYYADSVKGRFTISRDNAKNTVYLQMNSLKPEDTAVYYCATAGYFIYWGQGTQVTVSS	low polyreactivity
QVQLVESGGGLVQAGGSLRLSCAASGSTFPYYTMGWYRQAPGKERELVAAICGRGTSTYYADSVKGRFTISRDNAKNTVYLQMISLKPEDTAVYYCAARRADVQPYSPVYAYGAYDYWGQGTQVTVSS	high polyreactivity
QVQLVESGGGLVQAGGSLRLSCAASGSTFPYYTMGWYRQAPGKERELVAAITWRGGRTYYADSVKGRFTISRDNAKNTVYLQMNSLKPEDTAVYYCAVYRRWYSGLYDYWGQGTQVTVSS	high polyreactivity
QVQLVESGGGLVQAGGSLRLSCAASGSTFPYYVMGWYRQAPGKERELVAAIDESGDRTYYADSVKGRFTISRDNAKNTVYLQMNSLKPEDTAVYYCAAEGWYEYWYDYWGQGTQVTVSS	high polyreactivity
QVQLVESGGGLVQAGGSLRLSCAASGSTFPYYVMGWYRQAPGKERELVAAISGSGTRTYYADSVKGRFTISRDNAKNTVYLQMNSLKPEDTAVYYCAARKYPQGFDYWGQGTQVTVSS	low polyreactivity
QVQLVESGGGLVQAGGSLRLSCAASGSTFPYYVMGWYRQAPGKERELVATITNSGGSTYYADSVKGRFTISRDNAKNTVYLQMNSLKPEDTAVYYCAAVYWYGLYHRYYYWGQGTQVTVSS	low polyreactivity
QVQLVESGGGLVQAGGSLRLSCAASGSTFQFNTMGWYRQAPGKERELDAAITYSGGSTYYADSVKGRFTISRDNAKNTVYLQMNSQKPEDTAVYYCAADIITYDYPSYDGYIRYPYYYWGQGTQVTVTS	low polyreactivity
QVQLVESGGGLVQAGGSLRLSCAASGSTFQFNVMGWYRQAPGKERELVAAITSGASTYYADSVKGRFTISRDNAKNTVYLQMNSLEPVDTAVYYWAVDYSFRYDYVQRYYYWGQGTQVTVSS	high polyreactivity
QVQLVESGGGLVQAGGSLRLSCAASGSTFQFYAMGWYRQAPGKEREFVAGIRSSGGTYYADSVKGRFTISRDNAKNTVYLQMNSLKPEDTAVYYCAAVSSYSPYRRTYYYWGQGTQVTVSS	high polyreactivity
QVQLVESGGGLVQAGGSLRLSCAASGSTFQFYAMGWYRQAPGKERELVAAIDGSDGDTYYADSVKGRFTISRDNAKNTVYLQMNSLKPEDTAVYYCNADRDALVGYDYDYWGQGTQVTVSS	low polyreactivity
